# Measured values: the Human Domainome abundance scans (Beltran et al. 2025)
# ± gives the uncertainty stated by the source.
# B1: Mineralocorticoid receptor, residues 600 to 675; numbered along this chain, P08235 (parent)
# chain: SKICLVCGDEASGCHYGVVTCGSCKVFFKRAVEGQHNYLCAGRNDCIIDKIRRKNCPACRLQKCLQAGMNLGARKS
# Variants of: B1
# Test: abundance fitness (aPCA) (normalised: wild type 0, dead -1); higher = more abundant; growth selection in yeast, the domain comes from the species named
# Conditions: Homo sapiens
row,Variant,abundance fitness
1,SKICLVCGDEASGCHYGVVTCPSCKVFFKRAVEGQHNYLCAGRNDCIIDKIRRKNCPACRLQKCLQAGMNLGARKS [G22P],-0.054 ± 0.066
2,SKICLVCGDEASGCHYGVVTCQSCKVFFKRAVEGQHNYLCAGRNDCIIDKIRRKNCPACRLQKCLQAGMNLGARKS [G22Q],-0.16 ± 0.06
3,SKICLVCGDEASGCHYGVVTCRSCKVFFKRAVEGQHNYLCAGRNDCIIDKIRRKNCPACRLQKCLQAGMNLGARKS [G22R],-0.103 ± 0.037
4,SKICLVCGDEASGCHYGVVTCSSCKVFFKRAVEGQHNYLCAGRNDCIIDKIRRKNCPACRLQKCLQAGMNLGARKS [G22S],-0.058 ± 0.052
5,SKICLVCGDEASGCHYGVVTCTSCKVFFKRAVEGQHNYLCAGRNDCIIDKIRRKNCPACRLQKCLQAGMNLGARKS [G22T],-0.11 ± 0.064
6,SKICLVCGDEASGCHYGVVTCVSCKVFFKRAVEGQHNYLCAGRNDCIIDKIRRKNCPACRLQKCLQAGMNLGARKS [G22V],-0.093 ± 0.041
7,SKICLVCGDEASGCHYGVVTCWSCKVFFKRAVEGQHNYLCAGRNDCIIDKIRRKNCPACRLQKCLQAGMNLGARKS [G22W],-0.088 ± 0.05
8,SKICLVCGDEASGCHYGVVTCYSCKVFFKRAVEGQHNYLCAGRNDCIIDKIRRKNCPACRLQKCLQAGMNLGARKS [G22Y],-0.222 ± 0.12
9,SKICLVCGDEASGCHYGVVTCGACKVFFKRAVEGQHNYLCAGRNDCIIDKIRRKNCPACRLQKCLQAGMNLGARKS [S23A],-0.125 ± 0.054
10,SKICLVCGDEASGCHYGVVTCGCCKVFFKRAVEGQHNYLCAGRNDCIIDKIRRKNCPACRLQKCLQAGMNLGARKS [S23C],-0.253 ± 0.11
11,SKICLVCGDEASGCHYGVVTCGDCKVFFKRAVEGQHNYLCAGRNDCIIDKIRRKNCPACRLQKCLQAGMNLGARKS [S23D],0.01 ± 0.097
12,SKICLVCGDEASGCHYGVVTCGECKVFFKRAVEGQHNYLCAGRNDCIIDKIRRKNCPACRLQKCLQAGMNLGARKS [S23E],0.003 ± 0.053
13,SKICLVCGDEASGCHYGVVTCGFCKVFFKRAVEGQHNYLCAGRNDCIIDKIRRKNCPACRLQKCLQAGMNLGARKS [S23F],-0.168 ± 0.083
14,SKICLVCGDEASGCHYGVVTCGGCKVFFKRAVEGQHNYLCAGRNDCIIDKIRRKNCPACRLQKCLQAGMNLGARKS [S23G],0.009 ± 0.045
15,SKICLVCGDEASGCHYGVVTCGHCKVFFKRAVEGQHNYLCAGRNDCIIDKIRRKNCPACRLQKCLQAGMNLGARKS [S23H],-0.143 ± 0.15
16,SKICLVCGDEASGCHYGVVTCGICKVFFKRAVEGQHNYLCAGRNDCIIDKIRRKNCPACRLQKCLQAGMNLGARKS [S23I],-0.42 ± 0.37
17,SKICLVCGDEASGCHYGVVTCGKCKVFFKRAVEGQHNYLCAGRNDCIIDKIRRKNCPACRLQKCLQAGMNLGARKS [S23K],-0.007 ± 0.072
18,SKICLVCGDEASGCHYGVVTCGLCKVFFKRAVEGQHNYLCAGRNDCIIDKIRRKNCPACRLQKCLQAGMNLGARKS [S23L],-0.104 ± 0.06
19,SKICLVCGDEASGCHYGVVTCGMCKVFFKRAVEGQHNYLCAGRNDCIIDKIRRKNCPACRLQKCLQAGMNLGARKS [S23M],-0.085 ± 0.067
20,SKICLVCGDEASGCHYGVVTCGNCKVFFKRAVEGQHNYLCAGRNDCIIDKIRRKNCPACRLQKCLQAGMNLGARKS [S23N],0.051 ± 0.12
21,SKICLVCGDEASGCHYGVVTCGPCKVFFKRAVEGQHNYLCAGRNDCIIDKIRRKNCPACRLQKCLQAGMNLGARKS [S23P],0.026 ± 0.067
22,SKICLVCGDEASGCHYGVVTCGQCKVFFKRAVEGQHNYLCAGRNDCIIDKIRRKNCPACRLQKCLQAGMNLGARKS [S23Q],-0.013 ± 0.073
23,SKICLVCGDEASGCHYGVVTCGTCKVFFKRAVEGQHNYLCAGRNDCIIDKIRRKNCPACRLQKCLQAGMNLGARKS [S23T],-0.164 ± 0.069
24,SKICLVCGDEASGCHYGVVTCGWCKVFFKRAVEGQHNYLCAGRNDCIIDKIRRKNCPACRLQKCLQAGMNLGARKS [S23W],-0.193 ± 0.076

row,Variant,abundance fitness
1,SKICLVCGDEASGCHYGVVTCGYCKVFFKRAVEGQHNYLCAGRNDCIIDKIRRKNCPACRLQKCLQAGMNLGARKS [S23Y],-0.038 ± 0.09
2,SKICLVCGDEASGCHYGVVTCGSAKVFFKRAVEGQHNYLCAGRNDCIIDKIRRKNCPACRLQKCLQAGMNLGARKS [C24A],-0.983 ± 0.15
3,SKICLVCGDEASGCHYGVVTCGSDKVFFKRAVEGQHNYLCAGRNDCIIDKIRRKNCPACRLQKCLQAGMNLGARKS [C24D],-0.252 ± 0.18
4,SKICLVCGDEASGCHYGVVTCGSEKVFFKRAVEGQHNYLCAGRNDCIIDKIRRKNCPACRLQKCLQAGMNLGARKS [C24E],-1.03 ± 0.19
5,SKICLVCGDEASGCHYGVVTCGSHKVFFKRAVEGQHNYLCAGRNDCIIDKIRRKNCPACRLQKCLQAGMNLGARKS [C24H],-0.67 ± 0.28
6,SKICLVCGDEASGCHYGVVTCGSKKVFFKRAVEGQHNYLCAGRNDCIIDKIRRKNCPACRLQKCLQAGMNLGARKS [C24K],-1.03 ± 0.34
7,SKICLVCGDEASGCHYGVVTCGSLKVFFKRAVEGQHNYLCAGRNDCIIDKIRRKNCPACRLQKCLQAGMNLGARKS [C24L],-0.581 ± 0.092
8,SKICLVCGDEASGCHYGVVTCGSMKVFFKRAVEGQHNYLCAGRNDCIIDKIRRKNCPACRLQKCLQAGMNLGARKS [C24M],-1.04 ± 0.24
9,SKICLVCGDEASGCHYGVVTCGSNKVFFKRAVEGQHNYLCAGRNDCIIDKIRRKNCPACRLQKCLQAGMNLGARKS [C24N],-0.632 ± 0.17
10,SKICLVCGDEASGCHYGVVTCGSPKVFFKRAVEGQHNYLCAGRNDCIIDKIRRKNCPACRLQKCLQAGMNLGARKS [C24P],-0.878 ± 0.2
11,SKICLVCGDEASGCHYGVVTCGSQKVFFKRAVEGQHNYLCAGRNDCIIDKIRRKNCPACRLQKCLQAGMNLGARKS [C24Q],-1 ± 0.44
12,SKICLVCGDEASGCHYGVVTCGSRKVFFKRAVEGQHNYLCAGRNDCIIDKIRRKNCPACRLQKCLQAGMNLGARKS [C24R],-0.855 ± 0.11
13,SKICLVCGDEASGCHYGVVTCGSSKVFFKRAVEGQHNYLCAGRNDCIIDKIRRKNCPACRLQKCLQAGMNLGARKS [C24S],-0.867 ± 0.14
14,SKICLVCGDEASGCHYGVVTCGSVKVFFKRAVEGQHNYLCAGRNDCIIDKIRRKNCPACRLQKCLQAGMNLGARKS [C24V],-1.01 ± 0.13
15,SKICLVCGDEASGCHYGVVTCGSWKVFFKRAVEGQHNYLCAGRNDCIIDKIRRKNCPACRLQKCLQAGMNLGARKS [C24W],-1.11 ± 0.19
16,SKICLVCGDEASGCHYGVVTCGSCAVFFKRAVEGQHNYLCAGRNDCIIDKIRRKNCPACRLQKCLQAGMNLGARKS [K25A],-0.065 ± 0.042
17,SKICLVCGDEASGCHYGVVTCGSCCVFFKRAVEGQHNYLCAGRNDCIIDKIRRKNCPACRLQKCLQAGMNLGARKS [K25C],-0.022 ± 0.063
18,SKICLVCGDEASGCHYGVVTCGSCDVFFKRAVEGQHNYLCAGRNDCIIDKIRRKNCPACRLQKCLQAGMNLGARKS [K25D],-0.087 ± 0.075
19,SKICLVCGDEASGCHYGVVTCGSCEVFFKRAVEGQHNYLCAGRNDCIIDKIRRKNCPACRLQKCLQAGMNLGARKS [K25E],-0.01 ± 0.051
20,SKICLVCGDEASGCHYGVVTCGSCFVFFKRAVEGQHNYLCAGRNDCIIDKIRRKNCPACRLQKCLQAGMNLGARKS [K25F],-0.112 ± 0.099
21,SKICLVCGDEASGCHYGVVTCGSCGVFFKRAVEGQHNYLCAGRNDCIIDKIRRKNCPACRLQKCLQAGMNLGARKS [K25G],-0.051 ± 0.04
22,SKICLVCGDEASGCHYGVVTCGSCHVFFKRAVEGQHNYLCAGRNDCIIDKIRRKNCPACRLQKCLQAGMNLGARKS [K25H],-0.128 ± 0.11
23,SKICLVCGDEASGCHYGVVTCGSCIVFFKRAVEGQHNYLCAGRNDCIIDKIRRKNCPACRLQKCLQAGMNLGARKS [K25I],-0.069 ± 0.11
24,SKICLVCGDEASGCHYGVVTCGSCMVFFKRAVEGQHNYLCAGRNDCIIDKIRRKNCPACRLQKCLQAGMNLGARKS [K25M],-0.018 ± 0.061

row,Variant,abundance fitness
1,SKICLVCGDEASGCHYGVVTCGSCNVFFKRAVEGQHNYLCAGRNDCIIDKIRRKNCPACRLQKCLQAGMNLGARKS [K25N],0.084 ± 0.12
2,SKICLVCGDEASGCHYGVVTCGSCPVFFKRAVEGQHNYLCAGRNDCIIDKIRRKNCPACRLQKCLQAGMNLGARKS [K25P],-0.058 ± 0.072
3,SKICLVCGDEASGCHYGVVTCGSCQVFFKRAVEGQHNYLCAGRNDCIIDKIRRKNCPACRLQKCLQAGMNLGARKS [K25Q],-0.006 ± 0.055
4,SKICLVCGDEASGCHYGVVTCGSCRVFFKRAVEGQHNYLCAGRNDCIIDKIRRKNCPACRLQKCLQAGMNLGARKS [K25R],-0.051 ± 0.04
5,SKICLVCGDEASGCHYGVVTCGSCSVFFKRAVEGQHNYLCAGRNDCIIDKIRRKNCPACRLQKCLQAGMNLGARKS [K25S],-0.033 ± 0.044
6,SKICLVCGDEASGCHYGVVTCGSCTVFFKRAVEGQHNYLCAGRNDCIIDKIRRKNCPACRLQKCLQAGMNLGARKS [K25T],-0.105 ± 0.057
7,SKICLVCGDEASGCHYGVVTCGSCVVFFKRAVEGQHNYLCAGRNDCIIDKIRRKNCPACRLQKCLQAGMNLGARKS [K25V],-0.035 ± 0.042
8,SKICLVCGDEASGCHYGVVTCGSCWVFFKRAVEGQHNYLCAGRNDCIIDKIRRKNCPACRLQKCLQAGMNLGARKS [K25W],-0.083 ± 0.053
9,SKICLVCGDEASGCHYGVVTCGSCKAFFKRAVEGQHNYLCAGRNDCIIDKIRRKNCPACRLQKCLQAGMNLGARKS [V26A],-0.044 ± 0.05
10,SKICLVCGDEASGCHYGVVTCGSCKCFFKRAVEGQHNYLCAGRNDCIIDKIRRKNCPACRLQKCLQAGMNLGARKS [V26C],-0.1 ± 0.071
11,SKICLVCGDEASGCHYGVVTCGSCKDFFKRAVEGQHNYLCAGRNDCIIDKIRRKNCPACRLQKCLQAGMNLGARKS [V26D],0.024 ± 0.068
12,SKICLVCGDEASGCHYGVVTCGSCKEFFKRAVEGQHNYLCAGRNDCIIDKIRRKNCPACRLQKCLQAGMNLGARKS [V26E],-0.022 ± 0.058
13,SKICLVCGDEASGCHYGVVTCGSCKHFFKRAVEGQHNYLCAGRNDCIIDKIRRKNCPACRLQKCLQAGMNLGARKS [V26H],-0.03 ± 0.12
14,SKICLVCGDEASGCHYGVVTCGSCKIFFKRAVEGQHNYLCAGRNDCIIDKIRRKNCPACRLQKCLQAGMNLGARKS [V26I],0.031 ± 0.13
15,SKICLVCGDEASGCHYGVVTCGSCKKFFKRAVEGQHNYLCAGRNDCIIDKIRRKNCPACRLQKCLQAGMNLGARKS [V26K],0.008 ± 0.063
16,SKICLVCGDEASGCHYGVVTCGSCKLFFKRAVEGQHNYLCAGRNDCIIDKIRRKNCPACRLQKCLQAGMNLGARKS [V26L],-0.049 ± 0.041
17,SKICLVCGDEASGCHYGVVTCGSCKMFFKRAVEGQHNYLCAGRNDCIIDKIRRKNCPACRLQKCLQAGMNLGARKS [V26M],-0.058 ± 0.064
18,SKICLVCGDEASGCHYGVVTCGSCKNFFKRAVEGQHNYLCAGRNDCIIDKIRRKNCPACRLQKCLQAGMNLGARKS [V26N],-0.123 ± 0.11
19,SKICLVCGDEASGCHYGVVTCGSCKQFFKRAVEGQHNYLCAGRNDCIIDKIRRKNCPACRLQKCLQAGMNLGARKS [V26Q],0.001 ± 0.055
20,SKICLVCGDEASGCHYGVVTCGSCKRFFKRAVEGQHNYLCAGRNDCIIDKIRRKNCPACRLQKCLQAGMNLGARKS [V26R],0.033 ± 0.037
21,SKICLVCGDEASGCHYGVVTCGSCKWFFKRAVEGQHNYLCAGRNDCIIDKIRRKNCPACRLQKCLQAGMNLGARKS [V26W],0.009 ± 0.046
22,SKICLVCGDEASGCHYGVVTCGSCKYFFKRAVEGQHNYLCAGRNDCIIDKIRRKNCPACRLQKCLQAGMNLGARKS [V26Y],0.005 ± 0.095
23,SKICLVCGDEASGCHYGVVTCGSCKVAFKRAVEGQHNYLCAGRNDCIIDKIRRKNCPACRLQKCLQAGMNLGARKS [F27A],-0.434 ± 0.057
24,SKICLVCGDEASGCHYGVVTCGSCKVCFKRAVEGQHNYLCAGRNDCIIDKIRRKNCPACRLQKCLQAGMNLGARKS [F27C],-0.801 ± 0.2
